{"source": "paper PMC11156954", "about": "“Inhibition and transport mechanisms of the ABC transporter hMRP5” (Nature Communications, 2024)", "binders": {"B1": {"name": "MRP5 potential peptide inhibitor (M5PI) (peptide, UniProt O15440 35-75, looked up)", "peptide": "CSKFRRTRPLECQDALETAARAEGLSLDASMHSQLRILDEC", "notes": "stretch 35-75 of the N-terminal loop of human MRP5 (UniProt O15440) with both terminal residues replaced by cysteine; The cysteines were meant for cyclisation; also called D35C-E75C; Asp35Cys-Glu75Cys; source: synthetic peptide (GL Biochem, Shanghai)"}}, "key": {"hMRP5-Δ1-94-8xHis": {"molecular_target": "T1, hMRP5-Δ1-94-8xHis (human, UniProt O15440 95-1437, RED-tris-NTA 2nd Generation dye on the His tag)", "T1 construct": "human multidrug resistance protein 5 (MRP5, ABCC5), UniProt O15440, without the flexible N-terminal region Met1-Thr94; Plasmids and primers are in Supplementary Data 1 and 2; source: HEK293F, transfected; digitonin-purified (HEPES buffer instead of Tris)", "T1 sequence (O15440 95-1437, stated change not applied)": "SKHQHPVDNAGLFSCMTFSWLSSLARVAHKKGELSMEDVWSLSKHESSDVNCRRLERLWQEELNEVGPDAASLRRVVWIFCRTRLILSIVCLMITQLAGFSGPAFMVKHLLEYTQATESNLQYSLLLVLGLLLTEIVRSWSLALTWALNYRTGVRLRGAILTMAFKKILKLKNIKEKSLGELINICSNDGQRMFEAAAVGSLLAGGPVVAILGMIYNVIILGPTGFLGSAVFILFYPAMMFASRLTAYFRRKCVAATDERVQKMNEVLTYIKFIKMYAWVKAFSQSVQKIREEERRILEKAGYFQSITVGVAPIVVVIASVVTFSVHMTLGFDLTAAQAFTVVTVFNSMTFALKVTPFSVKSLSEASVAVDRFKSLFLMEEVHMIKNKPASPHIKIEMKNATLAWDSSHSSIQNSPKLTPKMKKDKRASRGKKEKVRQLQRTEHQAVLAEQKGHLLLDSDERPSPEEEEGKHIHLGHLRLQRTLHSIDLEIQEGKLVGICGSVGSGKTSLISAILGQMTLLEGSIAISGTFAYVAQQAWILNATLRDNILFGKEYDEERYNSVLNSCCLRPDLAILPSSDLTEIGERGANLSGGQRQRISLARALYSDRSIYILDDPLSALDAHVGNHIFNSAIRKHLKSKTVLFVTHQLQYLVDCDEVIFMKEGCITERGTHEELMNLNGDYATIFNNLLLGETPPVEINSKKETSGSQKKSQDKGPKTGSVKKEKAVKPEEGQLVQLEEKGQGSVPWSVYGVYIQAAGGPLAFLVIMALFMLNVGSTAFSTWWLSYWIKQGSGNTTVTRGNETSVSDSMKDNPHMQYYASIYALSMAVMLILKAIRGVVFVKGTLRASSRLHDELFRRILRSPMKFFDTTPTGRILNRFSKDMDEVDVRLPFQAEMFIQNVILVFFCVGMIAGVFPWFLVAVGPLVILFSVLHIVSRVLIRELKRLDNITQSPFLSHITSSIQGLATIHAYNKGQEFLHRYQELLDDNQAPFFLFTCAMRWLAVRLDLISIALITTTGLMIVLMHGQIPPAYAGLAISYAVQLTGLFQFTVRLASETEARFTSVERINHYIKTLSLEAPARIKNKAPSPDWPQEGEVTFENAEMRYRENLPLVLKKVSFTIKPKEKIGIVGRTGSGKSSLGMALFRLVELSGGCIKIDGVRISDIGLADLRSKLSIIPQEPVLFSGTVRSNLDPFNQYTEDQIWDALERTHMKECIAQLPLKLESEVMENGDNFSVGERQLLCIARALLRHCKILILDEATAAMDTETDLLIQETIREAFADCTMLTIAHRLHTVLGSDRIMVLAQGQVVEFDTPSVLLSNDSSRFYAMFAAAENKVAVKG", "assay": "MST; digitonin-purified hMRP5-Δ1-94-8xHis labelled with RED-tris-NTA 2nd Generation dye; serially diluted peptides; 15 min at room temperature; HEPES buffer; 3% LED/excitation power, medium MST power (Monolith NT)", "settings": "both partners purified"}, "hMRP5-Δ1-94": {"molecular_target": "T2, hMRP5-Δ1-94 (human, UniProt O15440 95-1437)", "T2 construct": "human multidrug resistance protein 5 (MRP5, ABCC5), UniProt O15440, without the flexible N-terminal region Met1-Thr94; This is the construct used for cryo-EM; Plasmids and primers are in Supplementary Data 1 and 2; also called hMRP5-Δ1-94 truncation mutant; apo form; source: HEK293F, transfected, purified (strep-Tactin, SEC on Superose 6 Increase, digitonin)", "T2 sequence (O15440 95-1437, stated change not applied)": "as above", "assay": "cryo-EM structure; peptide M5PI and hMRP5-Δ1-94 incubated on ice at a ratio of 2:1 for 1 h before vitrification; digitonin", "settings": "both partners purified"}}}
{"binder": "B1", "values": [{"measurement": "binding result", "setting": "hMRP5-Δ1-94-8xHis", "result": "binds"}, {"measurement": "binding result", "setting": "hMRP5-Δ1-94", "result": "binds"}]}
